From article PMC7460673, “Biochemical Characterization and Crystal Structure of a Novel NAD^+-Dependent Isocitrate Dehydrogenase from Phaeodactylum tricornutum” (International Journal of Molecular Sciences, 2020)
Values joined by “and” are separate entries in the source; they are usually repeats but may differ in a detail not shown here. Equal entries are not always repeated. Each block holds one molecule with its values, some of them ahead of it.

Key:
[1] = target: Phaeodactylum tricornutum isocitrate dehydrogenase 1, mature (without mitochondrial-targeting peptide) (Phaeodactylum tricornutum); test: SEC; Superdex 200 10/300 column calibrated with five standard proteins, 0.5 mL/min; 20 mM Tris, 300 mM NaCl, 5% glycerol, pH 7.5
[2] = target: T1, PtIDH1 (Phaeodactylum tricornutum, UniProt B7G620); test: spectrophotometric NADH formation at […] nm; format: biochemical
T1 construct: gene IDH1; hexamer also seen; C-terminal EF-hand domain

[3] = target: T1, PtIDH1; test: spectrophotometric NADH formation at […] nm; format: biochemical; details: read-out: Relative Activity (%) / PtIDH1
[4] = substrate: NC(=O)c1ccc[n+]([C@@H]2O[C@H](COP(=O)([O-])OP(=O)(O)OC[C@H]3O[C@@H](n4cnc5c(N)ncnc54)[C@H](O)[C@@H]3O)[C@@H](O)[C@H]2O)c1; test: purified protein; format: biochemical, Phaeodactylum tricornutum; details: 2 mM Mn2+, DL-isocitrate, 50 mM Tris pH 8.0, 25 °C, varied: cofactor
[5] = substrate: O=C(O)CC(C(=O)O)C(O)C(=O)O; test: purified protein; format: biochemical, Phaeodactylum tricornutum; details: 2 mM Mn2+, NAD+, 50 mM Tris pH 8.0, 25 °C, varied as DL-isocitrate, cooperative, nH 1.43

Molecule: Phaeodactylum tricornutum isocitrate dehydrogenase 1, mature (without mitochondrial-targeting peptide) (enzyme)
stoichiometry N [1]: 2 and 6

Molecule: Nc1ncnc2c1ncn2[C@@H]1O[C@H](COP(=O)(O)OP(=O)(O)OP(=O)(O)O)[C@@H](O)[C@H]1O [ATP]
activity at 1000 µM [3]: 88.7 ± 0.8%

B1: PtIDH1 (Phaeodactylum tricornutum CCAP 1055/1) (protein)
chain: MLSVENKVVAPPMVYIAGEEMTRYACDLVVKSWLEPYFDLSQWEYFDLSCVNRDNTNDQVLRDAVTAGQRIGAIFKEPTITPSAIQKKAFGLKNSLGSPNGAMRAGWNGITISRDTIHIDGIELGYKRPVFFERHAVGGEYGAGWSKVGRGTLLTTYLPSDGRDPFVVDKRDLTDQHNVVVTYHNPYDNVEPLAHLFFQRCLDANITPYVVTKKTVFKWQEGFWAVMKDVFDEHYKSRFEEKGLLQACGGDLQHLISDAATMQLIRWTDGGFGMAAHNYDGDMLTDQIAQVHRSPGFITSNLVGKAPDGSLIKEFEASHGTVSDLWNDHLAGKETSLNPLGLVEAIVGALQHAAVLDAEKNPDDEHKVKARDQIFNFTTTLRTAMHNTFRYGQGTRDMSGPSGYTTEDFVRKVAWRLQRYLDAQYDEAPPPQLGEPSRKLRRNYDIDEEAINGLFQKYDKNGDGFIDFEEFTRMLVKMNLAPLLTKKEKEKKPDV
notes: hexamer also seen; C-terminal EF-hand domain
Km [4]: 1132.5 ± 23.3 µM
kcat [4]: 180.5 ± 6.8 s⁻¹
kcat/Km [4]: 160000 M⁻¹ s⁻¹
K0.5 [5]: 84.9 ± 5.2 µM

Second part, the molecule after the results:

Ki [2]: 450 ± 80 µM
Molecule: NC(=O)C1=CN([C@@H]2O[C@H](COP(=O)(O)OP(=O)(O)OC[C@H]3O[C@@H](n4cnc5c(N)ncnc54)[C@H](O)[C@@H]3O)[C@@H](O)[C@H]2O)C=CC1 [NADH]

activity at 1000 µM [3]: 86.63 ± 0.2%
Molecule: Nc1ncnc2c1ncn2[C@@H]1O[C@H](COP(=O)(O)OP(=O)(O)O)[C@@H](O)[C@H]1O [ADP]
